Measurements as given in patent US20190135908A1 (Novartis, published 2019).
Numbering of substitutions follows the chain as printed. Each block holds one binder with its values, some of them ahead of it.

Legend:
[1] = target: T1, GDF15 mutant L294R (knuckle region), albumin fusion (human, UniProt Q99988 195-308); experiment: direct ELISA on coated albumin-fusion GDF15 mutant
T1 construct: not shown: albumin fusion partner
T1 chain: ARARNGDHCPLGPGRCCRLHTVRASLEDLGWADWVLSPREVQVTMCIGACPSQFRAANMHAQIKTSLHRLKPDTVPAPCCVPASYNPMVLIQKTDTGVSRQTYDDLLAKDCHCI
Procedure: (§1) Antibody epitope was determined by a direct ELISA method with GDF15 mutants. Albumin fusion GDF15 mutants were coated in wells of a 96-well EIA plate. After blocking, serially diluted anti-hGDF15 human antibodies were added to the GDF15-coated wells, followed by incubation at an ambient temperature for a few hours. Antibody binding was detected using an anti-human IgG antibody conjugated with horseradish peroxidase (HRP) and HRP substrate.

[2] = target: T2, GDF15 mutant I285R (knuckle region), albumin fusion (human, UniProt Q99988 195-308); experiment: direct ELISA on coated albumin-fusion GDF15 mutant
T2 construct: not shown: albumin fusion partner
T2 chain: T1 chain with I91R, R100L
Procedure: as §1

[3] = target: T3, GDF15 mutant M253R (wrist region), albumin fusion (human, UniProt Q99988 195-308); experiment: direct ELISA on coated albumin-fusion GDF15 variant
T3 construct: not shown: albumin fusion partner
T3 chain: T1 chain with M59R, R100L
Procedure: as §1

[4] = target: T4, GDF15 mutant D289R (finger tip region), albumin fusion (human, UniProt Q99988 195-308); experiment: as above
T4 construct: not shown: albumin fusion partner
T4 chain: T1 chain with D95R, R100L
Procedure: as §1

[5] = target: T5, GDF15 mutant S278R (back-of-hand), albumin fusion (human, UniProt Q99988 195-308); experiment: as above
T5 construct: not shown: albumin fusion partner
T5 chain: T1 chain with S84R, R100L
Procedure: as §1

[6] = target: T6, GDF15 mutant W228R (wrist region), albumin fusion (human, UniProt Q99988 195-308); experiment: as above
T6 construct: not shown: albumin fusion partner
T6 chain: T1 chain with W34R, R100L
Procedure: as §1

[7] = target: T7, GDF15 mutant Q247R (wrist region), albumin fusion (human, UniProt Q99988 195-308); experiment: as above
T7 construct: not shown: albumin fusion partner
T7 chain: T1 chain with Q53R, R100L
Procedure: as §1

[8] = target: T8, Human GDF15 native: naturally produced human GDF15 purchased from Peprotech (human, UniProt Q99988 195-308); experiment: Biacore SPR (rounded from Table 2, human GDF15 native); Biacore, not SET
T8 construct: Bought protein
T8 sequence: T1 chain with R100L
Procedure: (§2) Anti-human Fc capture antibody was immobilized at 0.5 μg/ml on CMS chip in all four flow cells to achieve 8000 to 12,000 resonance units (RU) on the surface. Anti-hGDF15 antibodies were captured at flow rate […], at 0.25 to 0.5 μg/ml on the chip to get about 30 RU in flow cells 2, 3 and 4. GDF15 ligand was flowed at […] over captured antibodies and reference flow cell 1 for 600 and 1200 seconds contact time. Eight doses serially diluted 1 to 2, ranging from 20 to 0.156 nM, were tested. All cycles were repeated twice, regenerated between cycles with 3M MgCl₂ at flow […], 20 seconds contact time. Data were normalized by subtracting reference flow cell results. Data were fit with 1:1 Kinetics model with RI (bulk refractive index) set constant at 0.

[9] = target: T9, GDF15 mutant S231R (knuckle region), albumin fusion (human, UniProt Q99988 195-308); experiment: direct ELISA: albumin fusion GDF15 mutant coated on the plate, serially diluted antibody, anti-human IgG-HRP detection
T9 construct: not shown: albumin fusion partner
T9 chain: T1 chain with S37R, R100L
Procedure: as §1

[10] = target: T8, Human GDF15 native: naturally produced …; experiment: Biacore SPR, IgG captured via anti-human Fc, GDF15 in flow
Procedure: (§3) Biacore assay is based on surface plasmon resonance (SPR) and were used to determine the binding affinity of antibodies to GDF15.
as §2

[11] = target: T10, Rat GDF15 HIS: HIS-tagged rat GDF15 (rat, UniProt Q9Z0J6 189-303, limits assumed); experiment: as above
T10 construct: also called Rat His-GDF15; not shown: His tag
T10 sequence (looked up): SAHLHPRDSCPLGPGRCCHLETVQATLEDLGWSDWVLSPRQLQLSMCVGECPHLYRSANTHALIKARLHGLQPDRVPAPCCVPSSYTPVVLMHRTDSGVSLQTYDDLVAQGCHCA
Procedure: as §3, §2

[12] = target: T11, Human His-GDF15: HIS-tagged human GDF15 (human, UniProt Q99988 195-308); experiment: as above
T11 construct: not shown: His tag
T11 sequence: T1 chain with R100L
Procedure: as §3, §2

[13] = target: T12, Cyno His-GDF15: HIS-tagged cyno GDF15 (cynomolgus, UniProt G7PWZ3 197-308, limits assumed); experiment: as above
T12 construct: not shown: His tag
T12 sequence (looked up): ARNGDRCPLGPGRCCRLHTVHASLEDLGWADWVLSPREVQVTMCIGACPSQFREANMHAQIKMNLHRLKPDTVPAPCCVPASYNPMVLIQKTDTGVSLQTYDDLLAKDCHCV
Procedure: as §3, §2

[14] = target: T13, Mouse His-GDF15: HIS-tagged mouse GDF15 (mouse, UniProt Q9Z0J7 189-303); experiment: as above
T13 construct: not shown: His tag
T13 sequence (looked up): T10 sequence (looked up) with L4A, L63Q, R75K, Q110R
Procedure: as §3, §2

[15] = target: T8, Human GDF15 native: naturally produced …; experiment: Biacore SPR (rounded from Table 2, human GDF15 native)
Procedure: as §2

[16] = target: T9, GDF15 mutant S231R (knuckle region), …; experiment: direct ELISA on coated albumin-fusion GDF15 mutant
Procedure: as §1

[17] = target: T1, GDF15 mutant L294R (knuckle region), …; experiment: direct ELISA: albumin fusion GDF15 mutant coated on the plate, serially diluted antibody, anti-human IgG-HRP detection
Procedure: as §1

B3: ABGDF15-B (antibody, human IgG1, lambda, V domains shown)
VH: QVQLVQSGAEVKKPGSSVKVSCKASGGTFRSYAVSWVRQAPGQGLEWMGGIIPIFGTANYAQKFQGRVTITADESTSTAYMELSSLRSEDTAVYYCARGPIIMGYQFGLFDHWGQGTLVTVSS
VL: SYELTQPLSVSVALGQTARITCSGDNIGSHIVSWYQQKPGQAPVLVIYDKSNRPSGIPERFSGSNSGNTATLTISRAQAGDEADYYCQTWDSIGSVVFGGGTKLTVLG
notes: captured through anti-human Fc in the Biacore assay
binding result [16]: no binding | binding result [2]: no binding | binding result [3]: binds | binding result [4]: binds | binding result [5]: binds | binding result [6]: binds | binding result [7]: binds | binding result [17]: binds | Kd [10]: 0.115 nM | koff [10]: 0.000389 s⁻¹ | kon [10]: 3.38e+06 M⁻¹ s⁻¹ | Kd [11]: 0.097 nM | koff [11]: 0.00052 s⁻¹ | kon [11]: 5.36e+06 M⁻¹ s⁻¹ | Kd [12]: 0.0614 nM | koff [12]: 0.00054 s⁻¹ | kon [12]: 8.8e+06 M⁻¹ s⁻¹ | Kd [13]: 0.0836 nM | koff [13]: 0.000461 s⁻¹ | kon [13]: 5.52e+06 M⁻¹ s⁻¹ | Kd [14]: 0.237 nM | koff [14]: 0.000626 s⁻¹ | kon [14]: 2.64e+06 M⁻¹ s⁻¹ | Kd [15]: 0.115 nM

B4: ABGDF15-C (antibody, human IgG1, lambda, V domains shown)
VH: B3 VH
VL: B3 VL with L8P, A13S, L14P, R19S, A42S, R76G, A77T, G80M
notes: as for B3
binding result [16]: no binding | binding result [2]: no binding | binding result [3]: binds | binding result [4]: binds | binding result [5]: binds | binding result [6]: binds | binding result [7]: binds | binding result [17]: binds | Kd [10]: 0.0656 nM | koff [10]: 0.000388 s⁻¹ | kon [10]: 5.92e+06 M⁻¹ s⁻¹ | Kd [11]: 0.0618 nM | koff [11]: 0.000483 s⁻¹ | kon [11]: 7.81e+06 M⁻¹ s⁻¹ | Kd [12]: 0.0422 nM | koff [12]: 0.000468 s⁻¹ | kon [12]: 1.11e+07 M⁻¹ s⁻¹ | Kd [13]: 0.065 nM | koff [13]: 0.000322 s⁻¹ | kon [13]: 4.96e+06 M⁻¹ s⁻¹ | Kd [14]: 0.116 nM | koff [14]: 0.000505 s⁻¹ | kon [14]: 4.37e+06 M⁻¹ s⁻¹ | Kd [15]: 0.066 nM

The next binders have a lower Kd [10] than those just listed; values first:

binding result [1]: no binding | binding result [2]: no binding | binding result [3]: binds | binding result [4]: binds | binding result [5]: binds | binding result [6]: binds | binding result [7]: binds | Kd [8]: 0.011 nM | binding result [9]: binds | Kd [10]: 0.0113 nM | koff [10]: 0.000374 s⁻¹ | kon [10]: 3.3e+07 M⁻¹ s⁻¹ | Kd [11]: 0.0232 nM | koff [11]: 0.000451 s⁻¹ | kon [11]: 1.95e+07 M⁻¹ s⁻¹ | Kd [12]: 0.00262 nM | koff [12]: 0.000247 s⁻¹ | kon [12]: 9.42e+07 M⁻¹ s⁻¹ | Kd [13]: 0.0134 nM | koff [13]: 0.000278 s⁻¹ | kon [13]: 2.07e+07 M⁻¹ s⁻¹ | Kd [14]: 0.0568 nM | koff [14]: 0.000613 s⁻¹ | kon [14]: 1.08e+07 M⁻¹ s⁻¹
B1: ABGDF15-A (antibody, human IgG1, kappa, V domains shown)
VH: EVQLVQSGAEVKKPGESLKISCKGSGYSFTDYWISWVRQMPGKGLEWMGIIDPSGSYTIYSPSFQGQVTISADKSISTAYLQWSSLKASDTAMYYCARVSYYGGYFDIWGQGTLVTVSS
VL: DIQMTQSPSSLSASVGDRVTITCRASQSISNNLNWYQQKPGKAPKLLIYAASNLQSGVPSRFSGSGSGTDFTLTISSLQPEDFATYYCFQLDHSPFTFGQGTKVEIKR
notes: as for B3

binding result [1]: no binding | binding result [2]: no binding | binding result [3]: binds | binding result [4]: binds | binding result [5]: binds | binding result [6]: binds | binding result [7]: binds | binding result [9]: binds | Kd [10]: 0.0368 nM | koff [10]: 0.000696 s⁻¹ | kon [10]: 1.89e+07 M⁻¹ s⁻¹ | Kd [11]: 0.0485 nM | koff [11]: 0.000538 s⁻¹ | kon [11]: 1.11e+07 M⁻¹ s⁻¹ | Kd [12]: 0.0115 nM | koff [12]: 0.00048 s⁻¹ | kon [12]: 4.19e+07 M⁻¹ s⁻¹ | Kd [13]: 0.035 nM | koff [13]: 0.00044 s⁻¹ | kon [13]: 1.26e+07 M⁻¹ s⁻¹ | Kd [14]: 0.0964 nM | koff [14]: 0.000584 s⁻¹ | kon [14]: 6.05e+06 M⁻¹ s⁻¹ | Kd [15]: 0.037 nM
B2: ABGDF15-F (antibody, human IgG1, lambda, V domains shown)
VH: B1 VH with D31S, S35G, I50V, V99Y, S100G, Y101R, G104T, I108Y
VL: QSVLTQPPSVSGAPGQRVTISCSGSSSNIGVLYVNWYQQLPGTAPKLLIYSNDNRPSGVPDRFSGSKSGTSASLAITGLQAEDEADYYCQSWDSSSNYVFGGGTKLTVLG
notes: as for B3
